Results on one molecule are retold here after US20070254830A1 (UNIVERSITY OF TOKYO, published 2007).

The assay has as its target T1, Myc/His-tagged C20orf20 (Homo sapiens (Human), UniProt Q9NV56 1-204).
T1 construct: Expressed in transfected COS7, SW480, HEK293 or HEK293F cells from pcDNA3.1Myc/His-C20orf20; also called myc-tagged C20orf20; pcDNA3.1Myc/His-C20orf20; not shown: Myc/His tag from the pcDNA3.1Myc/His vector
The assay can be described thus: reciprocal co-immunoprecipitation (anti-HA IP / anti-myc blot and anti-myc IP / anti-HA blot) from co-transfected COS7 cells. Here is the method: The entire coding region of p120 was amplified by RT-PCR and cloned into pCAGGS-HA vector. The primer sequences used for the amplification were 5′-[…]-3′ (SEQ ID NO.5) and 5′-[…]-3′ (SEQ ID NO.6). We transfected COS7 cells with pcDNA3.1Myc/His-C20orf20, pCAGGS-HA-p120 or their combination, and performed immunoprecipitation assay using anti-Myc or anti-HA antibody. Cells were washed with PBS and lysed in TNE buffer containing 150 mM NaCl, 0.5% NP40, 10 mM Tris-HCl (pH7.8), supplemented with a Protease Inhibitor Cocktail 3 (Roche). In a typical immunoprecipitation reaction, 400 μg of whole-cell extract was incubated with 1 μg of anti-Myc (Santa Cruz) or anti-HA antibody (Roche), and 20 μl of protein G Sepharose beads (Zymed) at 4° C. for 2 hr. Beads were washed four times in 1 ml of TNE buffer and proteins bound to the beads were eluted by boiling in Laemmli sample buffer. The precipitated protein was separated by SDS-PAGE and immunoblot analysis was carried out using with either rat anti-HA antibody or mouse anti-Myc antibody, respectively.

T1 sequence (Q9NV56 whole entry): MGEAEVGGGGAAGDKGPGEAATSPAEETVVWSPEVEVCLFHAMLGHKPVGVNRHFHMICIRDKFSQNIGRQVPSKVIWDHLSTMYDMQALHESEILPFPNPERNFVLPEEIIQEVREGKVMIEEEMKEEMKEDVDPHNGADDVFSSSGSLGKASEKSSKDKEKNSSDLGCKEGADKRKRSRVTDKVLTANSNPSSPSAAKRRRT

B1: HA-tagged p120 (other)
chain: MRSGDQNWVSVSRAIKPFAEPGRPPDWFSQKHCASQYSELLETTETPKRKRGEKGEVVETVEDVIVRKLTAERVEELKKVIKETQERYRRLKRDAELIQAGHMDSRLDELCNDIATKKKLEEEEAEVKRKATDAAYQARQAVKTPPRRLPTVMVRSPIDSASPGGDYPLGDLTPTTMEEATSGVTPGTLPSTPVTSFPGIPDTLPPGSAPLEAPMTPVTDDSPQKKMLGQKATPPPSPLLSELLKKGSLLPTSPRLVNESEMAVASGHLNSTGVLLEVGGVLPMIHGGEIQQTPNTVAASPAASGAPTLSRLLEAGPTQFTTPLASFTTVASEPPVKLVPPPVESVSHATIVMMPALPAPSSAPAVSTTESVAPVSQPDNCVPMEAVGDPHTVTVSMDSSEISMIINSIKEECFRSGVAEAPVGSKAPSIDGKEELDLAEKMDIAVSYTGEELDFETVGDIIAIIEDKVDDHPEVLDVAAVEAALSFCEENDDPQSLPGPWEHPIQQERDKPVPLPAPEMTVKQERLDFEETENKGIHELVDIREPSAEIKVEPAEPEPVISGAEIVAGVVPATSMEPPELRSQDLDEELGSTAAGEIVEADVAIGKGDETPLTNVKTEASPESMLSPSHGSNPIEDPLEAETQHKFEMSDSLKEESGTIFGSQIKDAPGEDEEEDGVSEAASLEEPKEEDQGEGYLSEMDNEPPVSESDDGFSIHNATLQSHTLADSIPSSPASSQFSVCSEDQEAIQAQKIWKKAIMLVWRAAANHRYANVFLQPVTDDIAPGYHSIVQRPMDLSTIKKNIENGLIRSTAEFQRDIMLMFQNAVMYNSSDHDVYHMAVEMQRDVLEQIQQFLATQLIMQTSESGISAKSLRGRDSTRKQDASEKDSVPMGSPAFLLSLFDGGTRGRRCAIEADMKMKK
notes: expressed in transfected COS7, SW480, HEK293 or HEK293F cells; also called SMAP; not shown: HA tag from the pCAGGS-HA vector
Consider B1, for which the binding result is given as “binds”.
